Measurements published in patent publication US20110280858A1.

Target: Lucilia sericata larval excretions/secretions (ES), Batch B: proteinase activities within ES
Assay: cell-based or functional assay

residual activity of STI-treated ES against H-Leu-AMC without further inhibitor (FIG. 10A), compared with untreated ES (percent of untreated ES): 25.7
residual activity of STI-treated ES against H-Leu-AMC, percentage of untreated ES (percent of untreated ES): 28.4
residual activity of STI-treated ES against Tosyl-Gly-Pro-Arg-AMC-HCl, percentage of untreated ES (percent of untreated ES): 0.5
residual activity of STI-treated ES against Z-Phe-Arg-AMC-HCl, percentage of untreated ES (percent of untreated ES): 1.8
Substance: soybean trypsin inhibitor (STI) immobilized on cross-linked 4% beaded agarose (from UniProt P01070 25-205)
